{
  "source": "paper PMC11672753",
  "target": "SARS-CoV-2 6P-mut7 spike protein (SARS-CoV-2) (UniProt P0DTC2)",
  "assay": "cryo-EM structure",
  "data": [
    {"substance": "COVA2-15 Fab", "values": [
      {"measurement": "stoichiometry N (Fab per spike trimer)", "value": 3}
    ]}
  ]
}
